Data taken from patent CN109942708A (SHANGHAI KEQI PHARMACEUTICAL TECH CO LTD, dated 2019).
Values joined by “and” are separate entries in the source; they are usually repeats but may differ in a detail not shown here. Equal values may be shown once.

T1: BCMA抗原 (UniProt Q02223 1-54)
T1 construct: Recombinant BCMA antigen as immobilised on the Biacore chip and coated in the specificity ELISA; also called B细胞成熟抗原; B cell maturation antigen
T1 sequence (looked up): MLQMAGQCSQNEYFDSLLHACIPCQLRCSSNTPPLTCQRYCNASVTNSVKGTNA

T2: CD138 (UniProt P18827 23-254, limits assumed)
T2 construct: Coated antigen in the specificity ELISA; also called CD138抗原
T2 sequence (looked up): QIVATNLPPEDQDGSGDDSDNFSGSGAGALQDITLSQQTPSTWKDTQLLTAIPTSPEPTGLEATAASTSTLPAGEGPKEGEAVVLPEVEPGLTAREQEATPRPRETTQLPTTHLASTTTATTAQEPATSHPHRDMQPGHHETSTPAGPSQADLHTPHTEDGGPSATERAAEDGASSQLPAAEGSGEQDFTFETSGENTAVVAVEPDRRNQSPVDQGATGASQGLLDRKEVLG

T3: CD38 (UniProt P28907 43-300)
T3 construct: Coated antigen in the specificity ELISA; also called CD38抗原
T3 sequence (looked up): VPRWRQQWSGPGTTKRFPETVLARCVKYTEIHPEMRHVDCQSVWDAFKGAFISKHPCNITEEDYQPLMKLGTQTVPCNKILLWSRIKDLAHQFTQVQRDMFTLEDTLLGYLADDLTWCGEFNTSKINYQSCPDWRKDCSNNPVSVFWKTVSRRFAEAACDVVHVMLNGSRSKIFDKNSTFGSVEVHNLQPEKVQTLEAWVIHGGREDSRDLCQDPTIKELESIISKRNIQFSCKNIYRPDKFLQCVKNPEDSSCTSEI


Tests used:
[1] = target: BCMA-his抗原 (UniProt Q02223); test: phage ELISA on coated BCMA-his, helper phage control
[2] = target: BCMA-his抗原 (UniProt Q02223); test: as above; remark: listed apart in the source
[3] = target: BCMA-FC抗原 (UniProt Q02223); test: phage ELISA on coated BCMA-FC, helper phage control
[4] = target: BCMA-his抗原 (UniProt Q02223); test: phage ELISA on coated BCMA-his
[5] = target: T1, BCMA抗原; test: SPR, Biacore T2000, BCMA amine-coupled to the chip, VHH injected, 25°C
[6] = target: T2, CD138; test: ELISA on antigen coated at 10ug/mL
[7] = target: T3, CD38; test: ELISA on antigen coated at 10ug/mL
[8] = target: BCMA-FC抗原 (UniProt Q02223); test: phage ELISA on coated BCMA-FC

Row | Molecule | OD450 [1] | OD450 [2] | OD450 [3] | OD450 [4] | Kd [5] | binding result [6] | binding result [7] | OD450 [8]
1 | M13K07 | 2.36 OD450 and 2.38 OD450 | 0.85 OD450 and 0.631 OD450 | 0.518 OD450 and 0.332 OD450 |  |  |  |  | 
2 | BCMA单域抗体B65 (VHH, FITC-labelled for flow cytometry; also called B65抗体) VHH: QLQLVESGGGLVQPGGSLRLSCAASGSISGIYAMGWYRQAPGKQRRLVAAITSGGDTFHADSVKGRFTISRDNAKNTMYLQMNSLKPEDTAVYYCNVAPWGDYDVRADFGSWGQGTQVTVSS |  |  |  | 2.76 OD450 | 0.32 nM | no binding | no binding | 
3 | BCMA单域抗体B1 (VHH, FITC-labelled for flow cytometry; also called B1抗体) VHH: QVQLVESGGGLVQPGGSLRLSCTASGSILSIYAMGWYRQAPGKQRELVAAINISSNTFYRDSVKGRFTISRDNAENTVYLQMNSLKPEDTAVYYCNVAPWGDYDVKTDFGGWGQGTQVTVSS |  |  |  | 2.33 OD450 | 2.14 nM | no binding | no binding | 2.96 OD450
